According to article PMC5880107, “The Sequence-specific Peptide-binding Activity of the Protein Sulfide Isomerase AGR2 Directs Its Stable Binding to the Oncogenic Receptor EpCAM*^([image sbox.jpg])” (Molecular & Cellular Proteomics : MCP, 2018):

B1: His-AGR2 WT (mature AGR2, amino acids 21-175, N-terminal 6xHis tag; plasmid pmAGR2) [human] / His-EpEX-CO, extracellular domain of EpCAM (amino acids 24-265), N-terminal 6xHis tag [human] (parent)
chain 1: RDTTVKPGAKKDTKDSRPKLPQTLSRGWGDQLIWTQTYEEALYKSKTSSKPLMIIHHLDECPHSQALKKVFAENKEIQKLAEQFVLLNLVYETTDKHLSPDGQYVPRIMFVDPSLTVRADITGRYSNRLYAYEPADTALLLDNMKKALKLLKTEL
chain 2: QEECVCENYKLAVNCFVNNNRQCQCTSVGAQNTVICSKLAAKCLVMKAEMNGSKLGRRAKPEGALQNNDGLYDPDCDESGLFKAKQCNGTSMCWCVNTAGVRRTDKDTEITCSERVRTYWIIIELKHKAREKPYDSKSLRTALQKEITTRYQLDPKFITSILYENNVITIDLVQNSSQKTQNDVDIADVAYYFEKDVKGESLFHSKKMDLTVNGEQLDLDPGQTLIYYVDEKAPEFSMQGLK

Variants of: B1
Test: ELISA (His-EpCAM solid phase; His-AGR2 mobile phase)
Conditions: with His-EpEX-CO, point at 0.5 μg AGR2 (highest dose of the titration), +DTT Blocking (DTT only in the blocking step, before AGR2 binding), read off a plot

Row | response [RLU] | Variant
1 | 110 | chain 1 S114A

Same assay, conditions: with His-EpEX-CO, point at 0.5 μg AGR2 (highest dose of the titration), no DTT in the blocking step, read off a plot

Row | response [RLU] | Variant
2 | 160 | chain 1 S114A
